Experimental data reported in the supplement of paper PMC9170038.

Tested on: MS2 coat protein
Test: apparent KD of MS2 coat protein; designed switch direction (-1 OFF switch, 1 ON switch): -1; higher = weaker reporter binding
Outline: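 Transcription of designed RNA switches on Illumina chips was done by stalled E. coli RNA polymerase. SNAP-549-labelled MS2 coat protein was then titrated in doubling steps from 0.7 or 1.5 nM to 3 µM, with steps of 0.8–1.5 h at the lowest and 10–20 min at the highest concentration. The per-design median over clusters of curve-fitted normalised fluorescence is reported as apparent KD.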

[1] = Eterna round: R95, input ligand: FMN 200 uM
[2] = Eterna round: R95, input ligand: microRNA oligo, concentration not stated
[3] = Eterna round: R95, input ligand: none
[4] = input ligand: microRNA oligo, concentration not stated

Sequence | apparent KD of MS2 coat protein (input ligand: FMN 200 uM) [µM] | apparent KD of MS2 coat protein (input ligand: none) [µM] | apparent KD of MS2 coat protein [1] [µM] | apparent KD of MS2 coat protein [2] [µM] | apparent KD of MS2 coat protein [3] [µM] | apparent KD of MS2 coat protein [4] [µM]
AGGUCACAUGAGGAUCACCCAUGUCAGGAUAUCUACAUUGAAGCCUCGGCUUCAAUGUAGAGAAGGGAUAAUUA [E1/8-B2] (Eterna round: R97, puzzle: Exclusion 1) | 0.0637 | 0.0447 | – | – | – | –
AAUAAUAAGGAGGAUAUCGUAUCGGAAACGAUACGAGAAGGCCUAACAUGAGGAUCACCCAUGUUCCUUAAAUA [Mat - Exclusion 6 - Eli Mod - D61] (puzzle: Exclusion 6) | – | – | 0.0373 | 0.0191 | 0.0201 | –
UAUAUAUAGUAAGGAUAUGUAUAUAUUUGAUAAACAGAAGGUACUGACAUGAGGAUCACCCAUGUUUUAGUGUGGGCAUGUAGA [JMF's solution 64] (Eterna round: R96, puzzle: Exclusion NG 1) | – | – | – | – | – | 0.0484
AAAUAAUAGAUAAAAUAAAACAUGAGGAUCACCCAUGUGGGAUGAUGAGGGUGAAACAAGCUUUUUGCUCGUCUUAU (puzzle: Sensor v3, turn-off variant 1) | – | – | 0.386 | 0.919 | 0.439 | –
GUCUAACAUGAGGAUCACCCAUGUCAGGAUAUGCGAAUUUCAUCAAAAGAUGAAAUUUGCAGAAGGGACUAGAC [Omei Ex1 A28] (Eterna round: R97, puzzle: Exclusion 1) | 0.0266 | 0.0241 | – | – | – | –
CAGAAACAUGAGGAUCACCCAUGUGAGGAUAUGAAAAAGAAAAGAAAAGAAAGAAGAAUCAGAAGGCACAAAGU [salish99-ex1_r3_086] (puzzle: Exclusion 1) | – | – | 0.0368 | 0.0324 | 0.0357 | –
CAGUCGAUAAGAUCAAUUAAUUAACAUGAGGAUCACCCAUGUGAGGAUAUCAGCUCGUGUAGAGCUGAGAAGGCACAACGACUG [ExNG3/17-A3] (Eterna round: R96, puzzle: Exclusion NG 3) | 0.278 | 0.0602 | – | – | – | 0.0517
AGAGAAUACUCAGGAUAUCGGAAUAGAAAGAGACGAGAAGGGAGACAUGAGGAUCACCCAUGUGAAGUCUUGAGGCUGCAUGGA [Prohibition 26 - Jieux - Exclusion NG 1] (Eterna round: R96, puzzle: Exclusion NG 1) | 0.197 | 0.165 | – | – | – | 0.122
CCGCUCCGUGUAGGAUAUUGGCCUGCUCUGGGCCGAGAAGGACAUGAGGAUCACCCAUGUAUGUUAUUAUCACGCGUGGCGCAU [Design 79] (Eterna round: R96, puzzle: Exclusion NG 1) | 0.0316 | 0.0216 | – | – | – | 0.0145
UGAACCCAUGUUAGGAUAUCAGGCCGAGGAAGUUCUGAGAAGGGACAUGAGGAUCACCCAUGUAUAAAAGAAAC [Veontiinge] (puzzle: Brourd's mod of Exclusion 4) | – | – | – | 0.0636 | – | –
CAAUAUUACUGAGGAUAUCCUAUUGUAUUUCAGGGAGAAGGCAGACUCAACAUGAGGAUCACCCAUGUAAGACGGGUACUAGAU [Ex NG1 #18] (Eterna round: R96, puzzle: Exclusion NG 1) | 0.097 | 0.0982 | – | – | – | 0.0774
UGGAGGUGAGGAUAUACAUGAGGAUCACCCAUGUGGUGAAGUAGAGAGUAGUGGAGUGGUAGAAGGCACGAGUA [Version #1] (Eterna round: R97, puzzle: Exclusion 3) | 0.702 | 0.352 | – | – | – | –
GAUUAUGCGAGCUUUAGGGACAUGAGGAUCACCCAUGUUCGUCUUAUUGAUCUAGGUACGCUGACGUACCUAAAUCU [Mod of one of jandersonlee's solutions] (puzzle: Sensor v3, turn-off variant 1) | – | – | 0.0205 | 0.0352 | 0.0234 | –
AUAAUGUAAGGAUAUCAGUCGACUAGCUGCGGCUAGUCGACUGAGAAGGUACAUGAGGAUCACCCAUGUGAUUA [E4/10-A3] (Eterna round: R97, puzzle: Exclusion 4) | 0.889 | 0.138 | – | – | – | –
ACUAGAUGAGGAUAUGCAUGUUUUCGUGUUCUUCUAGAUUAACAUGAGGAUCACCCAUGUAGAAGGCGUCAUAU [Exclusion 2 - 29] (puzzle: Exclusion 2) | – | – | – | 0.045 | – | –
CCUACGUUGUAGGAUAUAGUGAUUUAUUAAUAUUUAGAAGGACAUACAUGAGGAUCACCCAUGUGAGUUGGGUG [Eternabot (L2) Solution 27] (Eterna round: R97, puzzle: Exclusion 6) | 0.153 | 0.674 | – | – | – | –
AAAACACAUGAGGAUCACCCAUGUGAGGAUAUGUUAGUUUCGGCGAAAGCCGAAAUUAACAGAAGGCACAGAAA [JR_Exclusion1_Sub023] (puzzle: Exclusion 1) | – | – | 0.0447 | 0.0394 | 0.0401 | –

Sequence | apparent KD of MS2 coat protein (input ligand: FMN 200 uM) [µM] | apparent KD of MS2 coat protein (input ligand: none) [µM] | apparent KD of MS2 coat protein [1] [µM] | apparent KD of MS2 coat protein [2] [µM] | apparent KD of MS2 coat protein [3] [µM] | apparent KD of MS2 coat protein [4] [µM]
AACUAGUCAGGAUAUACGAACAUGUCAAAAAACAUAAAGGGACAUGAGGAUCACCCAUGUAGAAGGGACUAGCA [74%, Web mod - With 4 less G's] (Eterna round: R96, puzzle: Exclusion 2) | – | – | – | – | – | 0.15
UGCCGUAGAGGAUAUACGUAGAAAUAGAUUCAUGUAAAACUACAUGAGGAUCACCCAUGUAGAAGGCUAUGGCU [JL-ex2-4.32 Eli mod] (Eterna round: R97, puzzle: Exclusion 2) | 0.243 | 0.0253 | – | – | – | –
AGUACUAACACGAAAGUGUUAGUACAAAUGAGCUUUUGAACAUGAGGAUCACCCAUGUCCUCAUAAGCUCGUCUUAA [Mat - Sensor v2 - var 2 - Mod - D174] (Eterna round: R96, puzzle: Sensor v2, turn-off variant 2) | 0.0274 | 0.0322 | – | – | – | 0.408
CUGAGGUAGCGGUCCUAUGACAUGAGGAUCACCCAUGUACCUUGCUUUGAGCUAUUUGCUCGUCUUAUGAUUCUCGG [Mat - Sensor v3 - turn-off var 1 - JL Mod - D40] (Eterna round: R96, puzzle: Sensor v3, turn-off variant 1) | 0.788 | 0.758 | – | – | – | 0.655
GAUGAGGUAGGAUAUACGAUAAUAUAGGGUAGAUAUAUAACACAUGAGGAUCACCCAUGUAGAAGGACCAGUAC [Mat - Exclusion 2 - Mod of my Tesla design - D69] (puzzle: Exclusion 2) | – | – | – | 0.0364 | – | –
CAGUACUGAGGAUAUACAUGAGGAUCACCCAUGUGUUCCAGCUAGGAAACUAGCUAAAGUAGAAGGCAGUACUG [salish99_ex3_r3_092x] (Eterna round: R96, puzzle: Exclusion 3) | – | – | – | – | – | 0.0177
CUGAGCAGACGGAGAUCCAACAUGAGGAUCACCCAUGUCUCAGAAGCUUUUUGCUCGUCUUAUCCUCCUCUGUUCAC [Elimod 21 - Jieux - Sensor, turn-off variant 1] (Eterna round: R97, puzzle: Sensor, turn-off variant 1) | 0.103 | 0.119 | – | – | – | –
UCAGGUCGGUAGGAUAUCGACGGGAAAAUCCCACGAGAAGGACUGACAUGAGGAUCACCCAUGUGAGCGUAACC [EX6 B.11] (Eterna round: R97, puzzle: Exclusion 6) | 0.149 | 0.202 | – | – | – | –
UGAGUGCUGCGAGGAUAUACAUGAGGAUCACCCAUGUAAUCGUCUGAGGCAAAGCCUCAGACGAAGUAGAAGGCGCAGUACUCU [Mat - Exclusion NG 2 - Mod of JL - D26] (Eterna round: R96, puzzle: Exclusion NG 2) | 0.0155 | 0.0172 | – | – | – | 0.0115
AGCUGUGGCCGAGGAUAUGACAUGAGGAUCACCCAUGUACAUAAUUAGGCCUGGUAACAGGCUCUUCAGAAGGCGGUCUCAGCA [Eli eng2 - 006] (Eterna round: R96, puzzle: Exclusion NG 2) | 0.00727 | 0.0118 | – | – | – | 0.00645
CGGUGUAACGUAGGAUAUCAACGCAACUGACGAUGAGAAGGACGACAUGAGGAUCACCCAUGUGAUUUCUCAAUAUUAUACAUC [Prohibition 86 - Jieux - Exclusion NG 1] (Eterna round: R96, puzzle: Exclusion NG 1) | 0.339 | 0.0634 | – | – | – | 0.0419
AUUUGCACGCUGCGGUCCUACAUGAGGAUCACCCAUGUGGUCUGGUGGCGUGGGUCGCCGGACUUGGCUCGUCUUGU [salish99_S_TOV1_R5_033] (Eterna round: R97, puzzle: Sensor, turn-off variant 1) | 0.0187 | 0.0195 | – | – | – | –
CUGAGUUCAGGAUAUACAUGAGGAUCACCCAUGUAAAGUAGCUUGCGUACAGGCAGAUGUAGAAGGGAAUUCGG [Mod of JL 6 - Jieux - Exclusion 3] (Eterna round: R97, puzzle: Exclusion 3) | 0.0302 | 0.019 | – | – | – | –
AGCGCCAUCGUGAGAUGGCGUAUUACAUGAGGAUCACCCAUGUAGGAUAUCGAUUGCUUUGCAGUCGAGAAGGGCAUGUCCCAG [JL ENG3 3.80 Mod J] (Eterna round: R96, puzzle: Exclusion NG 3) | 0.023 | 0.0241 | – | – | – | 0.0192
GGCCGGGCAGGAUAUGCGUGGGUCCUCAUGAGGACCCACGUACAUGAGGAUCACCCAUGUAGAAGGGCCCGGCC (Eterna round: R97, puzzle: Exclusion 2) | 0.0176 | 0.0142 | – | – | – | –
AAACGGCAGGGAGGAUAUGCUUGCCUGGGUCGUCUUCAGACAUGAGGAUCACCCAUGUAGUCGACGCAGAAGGCCCUCAAAGCC [JL ViennaUCT Ontiis mod 5] (Eterna round: R96, puzzle: Exclusion NG 2) | 0.158 | 0.0181 | – | – | – | 0.0162
